Measurements taken from article PMC7317872.
Values belong to the substance of their own block, whether it stands above or below them.

Legend:
Cdh23 EC1-2 (WT) (mouse) [1] = target: Cdh23 EC1-2 (WT) (mouse) (UniProt Q99PF4); experiment: SAXS; proteins at 10 mg·mL^-1 in solution, SAXSpace instrument; 10 °C (methods)
Cdh23 EC1-2 (WT) (mouse) [2] = target: Cdh23 EC1-2 (WT) (mouse) (UniProt Q99PF4); experiment: SEC; analytical SEC, Superdex 200 increase 10/300, 100 μM injected, 25 mM HEPES, 25 mM KCl, 50 mM NaCl, 2 mM CaCl2, pH 7.5; 4 °C
Cdh23 EC1-2 (WT) (mouse) [3] = target: Cdh23 EC1-2 (WT) (mouse) (UniProt Q99PF4); experiment: AUC; sedimentation velocity, 142 000 g, 20 °C, pH 7.6, 25 mM HEPES, 50 mM NaCl, 25 mM KCl, 2 mM CaCl2; EC1-2 WT at 36 μM, EC1-2 E78K at 30 μM or ~440 μM, EC1 at 45 μM
Cdh23 EC1-2 (WT) (mouse) [4] = target: Cdh23 EC1-2 (WT) (mouse) (UniProt Q99PF4); experiment: AUC; sedimentation equilibrium at three rotor speeds, 20 °C, pH 7.6, 25 mM HEPES, 50 mM NaCl, 25 mM KCl, 2 mM CaCl2; global fit to monomer-dimer equilibrium (SEDPHAT); dimer to monomers
Cdh23 EC1-2 (WT) (mouse) [5] = target: Cdh23 EC1-2 (WT) (mouse) (UniProt Q99PF4); experiment: single-molecule force spectroscopy (AFM); protein anchored by its C terminus to cantilever and to coverslip (sortagging, PEG 5 kDa spacers); seven loading rates, contact time 500 ms; Bell-Evans fit
Cdh23 EC1-3 (mouse) = experiment: SEC; analytical SEC, Superdex 200 increase 10/300, 100 μM injected, 25 mM HEPES, 25 mM KCl, 50 mM NaCl, 2 mM CaCl2, pH 7.5; 4 °C
Cdh23 EC1 (WT) (mouse) [6] = target: Cdh23 EC1 (WT) (mouse) (UniProt Q99PF4); experiment: AUC; sedimentation velocity, 142 000 g, 20 °C, pH 7.6, 25 mM HEPES, 50 mM NaCl, 25 mM KCl, 2 mM CaCl2; EC1-2 WT at 36 μM, EC1-2 E78K at 30 μM or ~440 μM, EC1 at 45 μM
Cdh23 EC1 (WT) (mouse) [7] = target: Cdh23 EC1 (WT) (mouse) (UniProt Q99PF4); experiment: AUC; sedimentation equilibrium at three rotor speeds, 20 °C, pH 7.6, 25 mM HEPES, 50 mM NaCl, 25 mM KCl, 2 mM CaCl2; global fit to monomer-dimer equilibrium (SEDPHAT); dimer to monomers
Cdh23 EC1 (WT) (mouse) [8] = target: Cdh23 EC1 (WT) (mouse) (UniProt Q99PF4); experiment: single-molecule force spectroscopy (AFM); protein anchored by its C terminus to cantilever and to coverslip (sortagging, PEG 5 kDa spacers); seven loading rates, contact time 500 ms; Bell-Evans fit

stoichiometry N (Cdh23 EC1-2 (WT) (mouse) [1]): 2
stoichiometry N (Cdh23 EC1-2 (WT) (mouse) [2]): 2
stoichiometry N (Cdh23 EC1-2 (WT) (mouse) [3]): 2
Kd (Cdh23 EC1-2 (WT) (mouse) [4]): 18 µM
intrinsic lifetime at zero force (τ0), high-force distribution (Cdh23 EC1-2 (WT) (mouse) [5]): 1220 s
intrinsic lifetime at zero force (τ0), low-force distribution (Cdh23 EC1-2 (WT) (mouse) [5]): 1.86 s
probability of events (Cdh23 EC1-2 (WT) (mouse) [5]): 6%
Substance: Cdh23 EC1-2 (WT) (from UniProt Q99PF4 24-228) (domain or fragment)

stoichiometry N (Cdh23 EC1-3 (mouse)): 2
Substance: Cdh23 EC1-3 (domain or fragment)

stoichiometry N (Cdh23 EC1 (WT) (mouse) [6]): 2
Kd (Cdh23 EC1 (WT) (mouse) [7]): 52 µM
probability of events (Cdh23 EC1 (WT) (mouse) [8]): 10%
Substance: Cdh23 EC1 (WT) (from UniProt Q99PF4 24-124) (domain or fragment)
